Our source for the IC50 values is patent US5763571, “Inhibiting protein interactions” (The General Hospital Corporation, dated 1998).

No end group written: not given here.

In this assay the target is GST-Raf(1-257) (human). Put plainly: peptide competition of Ras-GTP / GST-Raf co-precipitation.

B1: Ras 37-51 peptide (peptide)
peptide: EDSYRKQVVIDGETC
modifications: not fully specified (N-terminus, C-terminus)
Molecule B1 registered an IC50 of 100 µM.
